{
  "source": "paper PMC6195595",
  "key": {"[1]": {"molecular_target": "Kj12B-NDD K24R, K26Q, K28E (Xenorhabdus stockiae KJ12.1)", "assay": "ITC; 50 µM NDD (or Kj12C construct) in the cell titrated with 1 mM CDD peptide; 20 °C; 50 mM sodium phosphate pH 6.5, 100 mM NaCl; one site binding model; three independent titrations"}, "[2]": {"molecular_target": "Kj12B-NDD K26Q, K28E (Xenorhabdus stockiae KJ12.1)", "assay": "ITC; 50 µM NDD (or Kj12C construct) in the cell titrated with 1 mM CDD peptide; 20 °C; 50 mM sodium phosphate pH 6.5, 100 mM NaCl; one site binding model; three independent titrations"}, "[3]": {"molecular_target": "Kj12B-NDD K28E (Xenorhabdus stockiae KJ12.1)", "assay": "ITC; 50 µM NDD (or Kj12C construct) in the cell titrated with 1 mM CDD peptide; 20 °C; 50 mM sodium phosphate pH 6.5, 100 mM NaCl; one site binding model; three independent titrations"}, "[4]": {"molecular_target": "Kj12C-NDD Q26K, E28A (Xenorhabdus stockiae KJ12.1)", "assay": "ITC; 50 µM NDD (or Kj12C construct) in the cell titrated with 1 mM CDD peptide; 20 °C; 50 mM sodium phosphate pH 6.5, 100 mM NaCl; one site binding model; three independent titrations"}, "[5]": {"molecular_target": "Kj12C-NDD-Cterm (full-length Kj12C module) (Xenorhabdus stockiae KJ12.1)", "assay": "ITC; 50 µM NDD (or Kj12C construct) in the cell titrated with 1 mM CDD peptide; 20 °C; 50 mM sodium phosphate pH 6.5, 100 mM NaCl; one site binding model; three independent titrations"}, "[6]": {"molecular_target": "Kj12B-^NDD (N-terminal docking domain of Kj12B) (Xenorhabdus stockiae KJ12.1)", "assay": "ITC; 50 µM ^NDD protein in the cell titrated with 1 mM ^CDD peptide or variant, 20 °C, 50 mM sodium phosphate pH 6.5, 100 mM NaCl, one site binding model, three independent titrations"}, "[7]": {"molecular_target": "Kj12C-^NDD (N-terminal docking domain of Kj12C) (Xenorhabdus stockiae KJ12.1)", "assay": "ITC; 50 µM ^NDD protein in the cell titrated with 1 mM ^CDD peptide or variant, 20 °C, 50 mM sodium phosphate pH 6.5, 100 mM NaCl, one site binding model, three independent titrations"}, "[8]": {"molecular_target": "Kj12B N-terminal docking domain (Xenorhabdus stockiae KJ12.1)", "assay": "ITC; 50 µM NDD (or Kj12C construct) in the cell titrated with 1 mM CDD peptide; 20 °C; 50 mM sodium phosphate pH 6.5, 100 mM NaCl; one site binding model; three independent titrations"}, "[9]": {"molecular_target": "Kj12C N-terminal docking domain (Xenorhabdus stockiae KJ12.1)", "assay": "ITC; 50 µM NDD (or Kj12C construct) in the cell titrated with 1 mM CDD peptide; 20 °C; 50 mM sodium phosphate pH 6.5, 100 mM NaCl; one site binding model; three independent titrations"}, "[10]": {"molecular_target": "Kj12B thiolation domain with CDD (Xenorhabdus stockiae KJ12.1)", "assay": "ITC; Kj12B T-domain-CDD in the cell (given as 50 mM) titrated with 1 mM Kj12C-NDD in the syringe; 20 °C; 50 mM sodium phosphate pH 6.5, 100 mM NaCl; one site binding model"}, "[11]": {"molecular_target": "Kj12A-^NDD (N-terminal docking domain of Kj12A) (Xenorhabdus stockiae KJ12.1)", "assay": "ITC; 50 µM ^NDD protein in the cell titrated with 1 mM ^CDD peptide or variant, 20 °C, 50 mM sodium phosphate pH 6.5, 100 mM NaCl, one site binding model, three independent titrations"}},
  "data": [
    {"substance": "Kj12B-CDDshort peptide", "values": [
      {"measurement": "stoichiometry N", "setting": "[1]", "value": 0.97, "unit": "sites"},
      {"measurement": "Kd", "setting": "[2]", "value": 20.4, "unit": "µM"},
      {"measurement": "stoichiometry N", "setting": "[2]", "value": 1, "unit": "sites"},
      {"measurement": "Kd", "setting": "[3]", "value": 33, "unit": "µM"},
      {"measurement": "stoichiometry N", "setting": "[3]", "value": 1, "unit": "sites"},
      {"measurement": "Kd", "setting": "[4]", "value": 80, "unit": "µM"},
      {"measurement": "stoichiometry N", "setting": "[4]", "value": 1, "unit": "sites"},
      {"measurement": "Kd", "setting": "[5]", "value": 8, "unit": "µM"},
      {"measurement": "stoichiometry N", "setting": "[5]", "value": 1, "unit": "sites"}
    ]},
    {"substance": "Kj12B-^CDD peptide R1565E", "values": [
      {"measurement": "Kd", "setting": "[6]", "value": 13, "unit": "µM"}
    ]},
    {"substance": "Kj12A-^CDD peptide with E1169R and H1171E (double mutant)", "values": [
      {"measurement": "Kd", "setting": "[7]", "value": 3.5, "unit": "µM"}
    ]},
    {"substance": "Kj12B-CDDshort R1565E peptide", "values": [
      {"measurement": "stoichiometry N", "setting": "[8]", "value": 1.15, "unit": "sites"}
    ]},
    {"substance": "Kj12A-^CDD peptide (C-terminal docking domain of Kj12A)", "values": [
      {"measurement": "Kd", "setting": "[7]", "value": 100, "unit": "µM"}
    ]},
    {"substance": "Kj12B-^CDD_(short) peptide", "values": [
      {"measurement": "Kd", "setting": "[7]", "value": 15, "unit": "µM"}
    ]},
    {"substance": "Kj12A-CDDshort E1169R, H1171E peptide", "values": [
      {"measurement": "stoichiometry N", "setting": "[9]", "value": 1.3, "unit": "sites"}
    ]},
    {"substance": "Kj12C N-terminal docking domain (domain or fragment)", "values": [
      {"measurement": "Kd", "setting": "[10]", "value": 19, "unit": "µM"},
      {"measurement": "stoichiometry N", "setting": "[10]", "value": 1.2, "unit": "sites"}
    ]},
    {"substance": "Kj12B-^CDD peptide (C-terminal docking domain of Kj12B)", "values": [
      {"measurement": "Kd", "setting": "[11]", "value": 8, "unit": "µM"},
      {"measurement": "Kd", "setting": "[6]", "value": 62, "unit": "µM"},
      {"measurement": "Kd", "setting": "[7]", "value": 8, "unit": "µM"}
    ]}
  ]
}
